Data published in article PMC6442593.
Values joined by “and” are separate entries in the source; they are usually repeats but may differ in a detail not shown here. Identical values can stand only once.

Target: uPAR-tagged soluble human GPIHBP1-S107C (human) (UniProt Q8IV16)
Assay: density gradient ultracentrifugation

uPAR-tagged soluble human GPIHBP1-S107C (from UniProt Q8IV16 21-151) (domain or fragment)
stoichiometry N: 2 and 3
